{"source": "patent US20240398896A1", "about": "“INFLAMMASOME INHIBITION” (National University of Singapore, priority 2021, published 2024)", "molecules": {"B1": {"name": "bat ASC2: ASC2 (PYRIN-only protein) of the bat Pteropus alecto, SEQ ID NO:11; expressed from vectors or as Dox-inducible transgene (protein)", "chain": "MGKKRDAILEALENLTADELKKFKLKLGAAPLRQGFRNIPRGALGPLDAVDLTDKLVAFYCEDYGAELTAVVLRDIGMQEEAERLQGVA"}}, "key": {"human ASC": {"biological_target": "T1, human ASC (Homo sapiens, UniProt Q9ULZ3)", "T1 construct": "expressed in transfected cells; host or cells: HEK293T", "T1 sequence (Q9ULZ3 whole entry)": "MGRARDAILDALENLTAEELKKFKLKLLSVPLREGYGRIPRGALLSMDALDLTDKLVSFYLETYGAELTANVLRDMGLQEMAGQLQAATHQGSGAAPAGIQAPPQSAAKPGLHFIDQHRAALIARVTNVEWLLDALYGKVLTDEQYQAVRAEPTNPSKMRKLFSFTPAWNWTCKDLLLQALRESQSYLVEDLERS", "assay": "Co-immunoprecipitation of ASC2-His with human ASC-Flag from HEK293T cells", "type": "binding", "settings": "0.25 μg bat or hupa4 ASC2 vs 3 μg human ASC2 transfected, FIG. 26A", "description": "(§1) Co-immunoprecipitation. HEK293T cells were transfected in 6-well plate with plasmids encoding His-tagged empty vector (His alone), bat ASC2, human ASC2, and Hupa4 ASC2 along with Flag-tagged human or bat ASC. 3 μg human ASC2, in contrast to 0.25 μg control, bat or hupa4 ASC2, were transfected to normalize the expression. At 48 h post-transfection, cells were lysed in IP lysis buffer (Pierce) according to manufacturer's protocol and centrifuged at 500 g for 10 minutes at 4° C. The supernatants were subjected to immunoprecipitation by incubation for 16 hours at 4° C. with anti-Flag (Sigma) incubated magnetic beads, followed by washing three times with TBS containing 0.05% Tween 20 and once with purified water. Bound proteins were separated by 15% SDS-PAGE, followed by immunoblotting analysis with the indicated antibodies."}, "AIM2 inflammasome [1]": {"biological_target": "T2, AIM2 inflammasome (Homo sapiens, UniProt Q9ULZ3)", "T2 sequence (Q9ULZ3 whole entry)": "as above", "assay": "ASC speck formation in HEK293T cells reconstituted with human AIM2-mCitrine and human ASC-mPlum (ImageStream)", "type": "cell-based", "design": "expressed in transfected cells; host or cells: HEK293T", "settings": "FIG. 3D", "text": "(§2) Inflammasome activation assays.\n(§3) ImageStream imaging flow cytometry. […] Nuclei were stained with DAPI."}, "NLRP3 inflammasome [2]": {"biological_target": "T3, NLRP3 inflammasome (Mus musculus, UniProt Q9EPB4)", "T3 sequence (Q9EPB4 1-193)": "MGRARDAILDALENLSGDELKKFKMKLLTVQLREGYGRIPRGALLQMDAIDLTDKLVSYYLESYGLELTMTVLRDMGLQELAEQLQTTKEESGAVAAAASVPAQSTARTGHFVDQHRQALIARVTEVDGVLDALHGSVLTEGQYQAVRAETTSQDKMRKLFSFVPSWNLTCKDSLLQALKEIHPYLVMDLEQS", "assay": "Inflammasome activation in LPS-primed BMDMs of WT or bat ASC2/rtTA mice stimulated with nigericin", "settings": "Dox-induced bat ASC2, LPS 3 h"}, "[3]": {"system": "peritonitis induced by MSU crystals", "assay": "Peritonitis induced by MSU crystals in bat ASC2/rtTA mice", "type": "in vivo, mouse", "settings": "bat ASC2/rtTA vs WT mice, oral Dox 7 days, 200 μg MSU crystals i.p., 4 h"}, "bat NLRP3 inflammasome": {"system": "bat NLRP3 inflammasome", "assay": "ASC speck formation in HEK293T cells reconstituted with bat NLRP3-mCitrine and bat ASC-mPlum (ImageStream)", "type": "cell-based, Pteropus alecto", "settings": "bat NLRP3-mCitrine, bat ASC-mPlum, ASC2-LSSmOrange overexpressed, FIG. 3B", "text": "as §2, §3"}, "bat ASC": {"system": "bat ASC", "assay": "Co-immunoprecipitation of ASC2-His with bat ASC-Flag from HEK293T cells", "type": "binding", "settings": "0.25 μg bat or hupa4 ASC2 vs 3 μg human ASC2 transfected, FIG. 26B", "description": "as §1"}, "Zika virus (ZIKV)": {"system": "Zika virus (ZIKV)", "type": "cell-based, mouse", "settings": "bat ASC2/rtTA vs WT BMDMs, ZIKV MOI=1, 24 h, Dox; FIG. 10F"}, "NLRP3 inflammasome [4]": {"biological_target": "T4, NLRP3 inflammasome (Homo sapiens, UniProt Q9ULZ3)", "T4 sequence (Q9ULZ3 whole entry)": "as the sequence (Q9ULZ3 whole entry) above", "assay": "ASC speck and filament formation in HEK293T cells reconstituted with human NLRP3-mCitrine and human ASC-mPlum (ImageStream, confocal)", "type": "cell-based", "design": "expressed in transfected cells; host or cells: HEK293T", "description": "as §2, §3\nConfocal imaging. […] At 48 h post-transfection, cells were fixed with 10% formalin for 15 min at room temperature. DAPI (1:2000 dilution) was used for nuclear staining. All samples were then mounted and examined using the Leica TCS SP8 confocal microscope."}, "NLRP3 inflammasome [5]": {"biological_target": "T4, NLRP3 inflammasome", "assay": "Inflammasome activation in LPS-primed THP-1 macrophages stably expressing ASC2, stimulated with MSU crystals", "type": "cell-based", "design": "endogenous in cells; host or cells: THP-1 macrophages (PMA-differentiated, LPS-primed)", "settings": "LPS 3 h, MSU crystals 4 h", "text": "(§4) Generation of THP-1 and IMACs stable cells. […] Single cell clones were generated for THP-1 cells stably expressing ASC2-LSSmOrange.\nas §2"}, "NLRP3 inflammasome [6]": {"biological_target": "T3, NLRP3 inflammasome", "assay": "Inflammasome activation in LPS-primed BMDMs of bat ASC2/rtTA mice stimulated with MSU crystals", "type": "cell-based", "design": "endogenous in cells; host or cells: BMDMs of C57BL/6 wild-type and bat ASC2/rtTA mice", "settings": "Dox, LPS 3 h, MSU 16 h, FIG. 6D, 6E", "text": "as §2"}, "NLRP3 inflammasome [7]": {"biological_target": "T4, NLRP3 inflammasome", "assay": "ASC speck formation by flow cytometry in reconstituted HEK293T cells (human NLRP3-mCitrine, human ASC-mPlum) with ASC2 of various species", "type": "cell-based", "design": "expressed in transfected cells; host or cells: HEK293T", "settings": "50 ng ASC2-LSSmOrange, 48 h, FIG. 27A", "description": "Plasmids. ASC2 sequences of 16 non-primate non-bat species were gene synthesized (IDT) and cloned into pQCXIH-LSSmOrange vector (Clontech). All constructs were prepared with endotoxin-free plasmid kits (Omega Bio-tek).\nTransfection. HEK293T cells were seeded at 3×10^5/mL in 96-well plate overnight. […] 48 h post-transfection, cells were harvested for flow cytometry analysis."}, "IAV": {"system": "IAV", "type": "cell-based, mouse"}, "[8]": {"system": "Pteropine orthoreovirus 3 (PRV3M)", "type": "cell-based, mouse", "settings": "bat ASC2/rtTA vs WT BMDMs"}, "AIM2 inflammasome [9]": {"biological_target": "T2, AIM2 inflammasome", "assay": "Inflammasome activation in LPS-primed THP-1 macrophages stably expressing ASC2, transfected with poly(dA:dT)", "type": "cell-based", "design": "endogenous in cells; host or cells: THP-1 macrophages (PMA-differentiated, LPS-primed, poly(dA:dT)-transfected)", "settings": "LPS 3 h, poly(dA:dT) 4 h", "text": "as §4, §2"}}, "data": [{"molecule": "B1", "values": [{"measurement": "Interaction with human ASC (co-IP)", "setting": "human ASC", "result": "interact strongly with human ASC"}, {"measurement": "ASC speck formation (human AIM2 inflammasome activation)", "setting": "AIM2 inflammasome [1]; HEK293T, human AIM2-mCitrine, human ASC-mPlum, ASC2-LSSmOrange", "result": "suppressed the activation"}, {"measurement": "Potency in inhibiting human AIM2 inflammasome compared with human ASC2", "setting": "AIM2 inflammasome [1]; expression normalized by gating equal signal intensity", "result": "significantly more potent"}, {"measurement": "ASC speck formation", "setting": "NLRP3 inflammasome [2]; nigericin 30 min, FIG. 6B, 6C", "result": "reduction of ASC speck formation"}, {"measurement": "Pyroptotic cell death (LDH release)", "setting": "NLRP3 inflammasome [2]; nigericin 1 h, FIG. 5B", "result": "reduction"}, {"measurement": "IL-1β secretion", "setting": "NLRP3 inflammasome [2]; nigericin 1 h, FIG. 5C", "result": "reduction"}, {"measurement": "Recruitment of neutrophils and inflammatory monocytes (peritoneal lavage)", "setting": "[3]; FIG. 8B, 8C", "result": "significantly reduced"}, {"measurement": "IL-1β release in the peritoneal lavage", "setting": "[3]; FIG. 8D", "result": "decreased"}, {"measurement": "ASC speck formation (bat NLRP3 inflammasome activation)", "setting": "bat NLRP3 inflammasome", "result": "inhibited bat NLRP3 inflammasome"}, {"measurement": "Interaction with bat ASC (co-IP)", "setting": "bat ASC", "result": "interact with bat ASC more strongly than human ASC2"}, {"measurement": "IL-1β secretion triggered by ZIKV", "setting": "Zika virus (ZIKV)", "result": "substantially inhibited"}, {"measurement": "ASC2 filament formation / distribution", "setting": "NLRP3 inflammasome [4]; HEK293T, ImageStream and confocal", "result": "formed fine and long filaments"}, {"measurement": "Co-localization with human ASC", "setting": "NLRP3 inflammasome [4]; HEK293T, imaging, FIG. 3A", "result": "co-localization between bat ASC2 and human ASC"}, {"measurement": "ASC speck formation (human NLRP3 inflammasome activation)", "setting": "NLRP3 inflammasome [4]; HEK293T, human NLRP3-mCitrine, human ASC-mPlum, 50 ng ASC2-LSSmOrange, 48 h post-transfection", "result": "suppressed the activation of human NLRP3"}, {"measurement": "Potency in inhibiting human NLRP3 inflammasome compared with human ASC2", "setting": "NLRP3 inflammasome [4]; expression normalized by gating equal signal intensity, FIG. 3C", "result": "significantly more potent"}, {"measurement": "Cell death (LDH release)", "setting": "NLRP3 inflammasome [5]; FIG. 4D", "result": "inhibited"}, {"measurement": "IL-1β secretion", "setting": "NLRP3 inflammasome [5]; FIG. 4E", "result": "inhibited"}, {"measurement": "Activation of NLRP3 inflammasome (LDH release, IL-1β)", "setting": "NLRP3 inflammasome [6]", "result": "suppressed the activation"}, {"measurement": "Effect on inflammasome activation (ASC speck formation)", "setting": "NLRP3 inflammasome [7]", "result": "inhibitory effect"}, {"measurement": "In vitro IL-1β response to IAV infection", "setting": "IAV", "result": "significantly lower"}, {"measurement": "Viral titres in supernatants", "setting": "IAV", "result": "no obvious difference"}, {"measurement": "IL-1β secretion triggered by PRV3M", "setting": "[8]; LPS 3 h, PRV3M MOI=5, 24 h, Dox, FIG. 10G", "result": "substantially inhibited"}, {"measurement": "Viral load for PRV3M", "setting": "[8]; MOI=5, 24 h, FIG. 10E", "result": "without affecting the viral load"}, {"measurement": "Cell death (LDH release)", "setting": "AIM2 inflammasome [9]; FIG. 3G", "result": "inhibited"}, {"measurement": "IL-1β secretion", "setting": "AIM2 inflammasome [9]; FIG. 3H", "result": "inhibited"}]}]}
